IC50 data for 1 substance are collected here from patent US20070082843A1.

As a reminder, the IC50 is the point on the concentration scale where inhibition reaches its midpoint. A lower IC50 goes with higher potency.

The target in the test is melanocortin-4 receptor (MC4R) (UniProt P32245). The experiment in a line: competitive binding vs [125I]-NDP-alpha-MSH (receptor not given; MC4R by Example 3).
UniProt P32245, sequence (P32245 whole entry): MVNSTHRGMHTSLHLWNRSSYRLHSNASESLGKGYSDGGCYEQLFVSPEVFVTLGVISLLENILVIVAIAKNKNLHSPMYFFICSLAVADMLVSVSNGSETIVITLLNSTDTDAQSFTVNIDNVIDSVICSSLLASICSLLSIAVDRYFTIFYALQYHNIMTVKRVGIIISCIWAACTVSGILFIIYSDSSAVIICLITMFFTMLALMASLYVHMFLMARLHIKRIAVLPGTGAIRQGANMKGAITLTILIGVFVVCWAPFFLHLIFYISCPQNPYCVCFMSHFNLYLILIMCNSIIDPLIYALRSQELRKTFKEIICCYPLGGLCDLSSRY

In turn, melanotan II (MTII) (peptide) registered an IC50 of 5 to 30 nM.
